{"source": "patent US20100196361A1", "about": "“Method of inhibition of vascular development using an antibody” (DYAX CORP., priority 2003, published 2010)", "molecules": {"B1": {"name": "E3: human anti-Tie1 antibody from phage Fab library, reformatted as IgG; HC variable SEQ ID NO:114, LC variable SEQ ID NO:116 (antibody, V domains shown)", "VH": "EVQLLESGGGLVQPGGSLRLSCAASGFTFSMYGMVWVRQAPGKGLEWVSVISPSGGNTGYADSVKGRFTISRDNSKNTLYLQVNSLRAEDTAVYYCARAPRGYSYGYYYWGQGTLVTVSSASTKGPSVFPLAPSSKSTSGG", "VL": "DIQMTQSPLSLSASVGDRVTITCRASQGIGHYLAWYQQKPGKVPKLLIYTASTLQSGVPSRFSGSGSGTDFTLTINSLQPEDVATYYCQQFNSYPHTFGQGTRLDIK", "modifications": "IgG constant regions; Synthetically generated peptide"}, "B2": {"name": "parental E3 Fab: soluble Fab fragment of the parental E3 anti-Tie1 antibody (antibody, V domains shown)", "VH": "B1 VH", "VL": "B1 VL"}, "B3": {"name": "DX-2210: E3 antibody in which the light chain has been germlined (antibody, V domains shown)", "VH": "B1 VH", "VL": "B1 VL with L9S, N76S, D105E"}, "B4": {"name": "germlined E3 Fab: soluble Fab of E3 with LC framework regions germlined to DPK4; LC variable SEQ ID NO:159 (antibody, V domains shown)", "VH": "B1 VH", "VL": "B1 VL with L9S, N76S, D105E"}}, "key": {"[1]": {"tested_on": "bFGF-induced angiogenesis", "experiment": "[…] plug assay in vivo", "design": "species or system mouse", "protocol": "The germlined variant of the E3 IgG antibody was evaluated in an in vivo assay for angiogenesis induced by bFGF in […]™ plugs. Growth factor reduced […]™ (BD Biosciences, catalog #354230) was supplemented with 80 ng/ml of bFGF (R&D Systems, catalog #234-FSE). The A2-SV or an IgG4 E3 antibody (10 μg/ml) or PBS was injected subcutaneously into the abdominal area of NMRI nu/nu mice (150 μl of Matrigel/plug).\nIn the first assay, two mice were injected with […]™ supplemented with bFGF and soluble VEGFR-1 (10 μg/ml) as a positive control for an angiogenic inhibitor. At day 7 post-implantation mice were anesthetized and perfused through heart with 4% paraformaldehyde (PFA) in phosphate buffered saline (PBS). […]™ plugs and a piece of liver were removed and embedded in paraffin. Sections were cut and stained with hematoxylin and eosin (H&E).\nIn a second assay, mice were treated as described above, and then anesthetized eight days post-implantation and injected with fluorescein-conjugated tomato (lycopersicon esculentum) lectin (100 μg in 200 μl of PBS; Vector, catalog #FL-1171) into the tail vein. After five min circulation the animals were perfused through the heart with 10 ml of PBS followed by 10 ml of 4% PFA in PBS. […]™ plugs and pieces of kidney and liver were removed and frozen in OCT (Tissue-Tek). Nuclei were visualized on sections by using […]® mounting medium containing DAPI (Vector) and analyzed under fluorescence microscopy.\nTo assess further the potential anti-angiogenic activity of the E3 antibody, a third assay examining the effect of DX-2210 (E3 antibody with germlined light chain) on bFGF-induced endothelial cell tube formation in […]™ plugs was performed. […] In order to quantitate the amount of blood vessels in the […]™ plugs, sections were cut and either stained for endothelial cell content using an anti-CD-31 antibody or analyzed under fluorescence microscopy to assess the amount of functional blood vessels (tomato lectin staining) (data not shown). In addition, the amount of blood vessels per unit area was quantitated."}, "platelets": {"tested_on": "platelets", "experiment": "Platelet agglutination and aggregation", "assay_type": "cell-based", "text": "It has been reported that Tie1 is expressed on platelets ([…] et al. (2000) J. Vasc. Res. 37(6):437). The possibility of platelet immunoreactivity with the E3 anti-Tie1 antibody was investigated by FACs analysis and immunoprecipitation studies. […] In addition, the effect of DX-2200 and DX-2210 on platelet agglutination and aggregation was investigated. Ristocetin, a cofactor that induces platelet agglutination by mediating the binding of von Willebrand factor (vWF) to platelet membrane glycoprotein GPIb (CD42), was used as a positive control for platelet agglutination."}, "mouse Tie1 Fc": {"molecular_target": "T1, mouse Tie1 Fc (Mus musculus, UniProt Q06806)", "T1 construct": "both dimeric (Tie1-Fc fusion protein) and monomeric (Tie1-HIS) versions of the extracellular domain of the Tie1 were used", "T1 sequence (Q06806 23-755 limits assumed)": "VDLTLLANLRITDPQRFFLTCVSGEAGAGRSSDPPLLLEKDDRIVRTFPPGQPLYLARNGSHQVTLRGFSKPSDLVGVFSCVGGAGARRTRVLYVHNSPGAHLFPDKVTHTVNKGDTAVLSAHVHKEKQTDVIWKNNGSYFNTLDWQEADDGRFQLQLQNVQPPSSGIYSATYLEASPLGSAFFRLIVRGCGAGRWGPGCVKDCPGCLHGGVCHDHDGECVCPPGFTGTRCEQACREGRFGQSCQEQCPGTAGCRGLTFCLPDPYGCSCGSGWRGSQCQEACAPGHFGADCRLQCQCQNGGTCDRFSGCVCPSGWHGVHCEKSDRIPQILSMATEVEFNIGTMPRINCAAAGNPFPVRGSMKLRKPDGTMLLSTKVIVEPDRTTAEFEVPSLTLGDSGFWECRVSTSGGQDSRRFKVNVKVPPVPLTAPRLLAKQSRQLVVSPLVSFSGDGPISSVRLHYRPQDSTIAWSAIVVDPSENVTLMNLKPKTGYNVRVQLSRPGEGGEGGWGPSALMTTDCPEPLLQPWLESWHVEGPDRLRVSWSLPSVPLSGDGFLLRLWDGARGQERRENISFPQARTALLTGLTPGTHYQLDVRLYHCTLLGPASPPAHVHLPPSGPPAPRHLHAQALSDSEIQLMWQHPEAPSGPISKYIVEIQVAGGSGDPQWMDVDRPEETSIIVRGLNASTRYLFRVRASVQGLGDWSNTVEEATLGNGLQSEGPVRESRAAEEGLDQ", "experiment": "BIAcore, Fab over biotinylated mouse Tie1-Fc on streptavidin chip", "assay_type": "binding", "settings": "Fab analyte; for kon: 740 RU", "protocol": "Mouse Tie 1-Fc antigen (0.5 mg/ml stock) was biotinylated using established procedures and after dilution 1/100 fold in HBS this was then used for capturing to a streptavidin chip. This was coated to a resonance value of 740RU. All analysis was performed in HBS buffer. The parental Fab E3 0.587 mg/ml (11740 nM) was diluted 1/587 in HBS+BSA to obtain a stock of 20 nM and the germlined Fab E3 0.025 mg/ml (500 nM) was diluted 1/25 in HBS+BSA to obtain a stock of 20 nM. Serial dilutions were made of each Fab preparation to obtain 10 nM, 5 nM, 2.5 nM, and 1.25 nM. For the association phase samples were injected at 30 μl/min for 4 minutes using kinject program. This was followed by a 10 minutes dissociation phase, any remaining sample was stripped from the Tie1 Fc surface at a flow of 50 μl/min with a single injection of 50 mM NaOH+1 M NaCl for 18 seconds. All samples were run and analyzed in duplicate.\nSensorgrams were analyzed using the simultaneous ka/kd fitting program with 1:1 model in the BIAEVALUATION™ software 3.1."}}, "note": "Numbering of substitutions follows the chain as printed. Like-named read-outs stand apart in the source and are kept apart here."}
{"molecule": "B1", "values": [{"measurement": "fluorescein-lectin staining of MATRIGEL plugs", "setting": "[1]; bFGF, antibody in plug, eight days post-implantation", "result": "no staining could be detected"}, {"measurement": "induction of platelet agglutination or aggregation", "setting": "platelets; ristocetin and anti-CD9 as positive controls", "result": "Neither the DX-2200 nor its light chain germlined variant DX-2210 induced platelet agglutination or aggregation"}]}
{"molecule": "B2", "values": [{"measurement": "koff", "setting": "mouse Tie1 Fc", "result": 0.00095, "unit": "s⁻¹"}, {"measurement": "kon", "setting": "mouse Tie1 Fc", "result": 246000, "unit": "M⁻¹ s⁻¹"}]}
{"molecule": "B3", "values": [{"measurement": "inhibition of bFGF-induced angiogenesis (blood vessels per unit area)", "setting": "[1]; MATRIGEL with HUVECs and bFGF, Balb/c nu/nu mice, day 8", "result": 70, "unit": "%"}, {"measurement": "H&E staining of MATRIGEL plugs", "setting": "[1]; bFGF 80 ng/ml, antibody 10 μg/ml in plug, NMRI nu/nu mice, day 7", "result": "neither modification of the matrix nor organization of the cells observed"}, {"measurement": "induction of platelet agglutination or aggregation", "setting": "platelets", "result": "Neither the DX-2200 nor its light chain germlined variant DX-2210 induced platelet agglutination or aggregation"}]}
{"molecule": "B4", "values": [{"measurement": "koff", "setting": "mouse Tie1 Fc", "result": 0.00104, "unit": "s⁻¹"}, {"measurement": "kon", "setting": "mouse Tie1 Fc", "result": 340000, "unit": "M⁻¹ s⁻¹"}]}
